Experiments:
[1] = biological target: T1, recombinant biotinylated CD71 extracellular domain (Sino Biologics) with an N-terminal 6His tag (human, UniProt P02786 89-760, biotinylated (site not stated)); assay: primary solution ELISA screen, signal on hCD71 over HSA
T1 construct: extracellular domain; also called hCD71; huCD71 ECD

[2] = biological target: T1, recombinant biotinylated CD71 …; assay: primary solution ELISA screen
[3] = biological target: T2, CD71 apical domain (UniProt P02786 189-383, limits assumed); assay: solution ELISA
T2 construct: domain: Apical domain
T2 sequence (P02786 189-383 limits assumed): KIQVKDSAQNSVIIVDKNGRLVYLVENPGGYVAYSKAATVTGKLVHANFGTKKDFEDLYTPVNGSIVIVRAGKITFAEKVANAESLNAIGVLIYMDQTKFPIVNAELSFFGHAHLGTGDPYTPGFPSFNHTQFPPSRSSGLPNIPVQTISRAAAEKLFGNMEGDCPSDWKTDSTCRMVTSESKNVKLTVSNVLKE

[4] = biological target: T3, recombinant biotinylated human CD71 extracellular domain (human, UniProt P02786 89-760, biotinylated); assay: solution ELISA
T3 construct: extracellular domain; also called hCD71; huCD71 ECD
T3 sequence (P02786 other isoform, or with tags, fused parts or gaps): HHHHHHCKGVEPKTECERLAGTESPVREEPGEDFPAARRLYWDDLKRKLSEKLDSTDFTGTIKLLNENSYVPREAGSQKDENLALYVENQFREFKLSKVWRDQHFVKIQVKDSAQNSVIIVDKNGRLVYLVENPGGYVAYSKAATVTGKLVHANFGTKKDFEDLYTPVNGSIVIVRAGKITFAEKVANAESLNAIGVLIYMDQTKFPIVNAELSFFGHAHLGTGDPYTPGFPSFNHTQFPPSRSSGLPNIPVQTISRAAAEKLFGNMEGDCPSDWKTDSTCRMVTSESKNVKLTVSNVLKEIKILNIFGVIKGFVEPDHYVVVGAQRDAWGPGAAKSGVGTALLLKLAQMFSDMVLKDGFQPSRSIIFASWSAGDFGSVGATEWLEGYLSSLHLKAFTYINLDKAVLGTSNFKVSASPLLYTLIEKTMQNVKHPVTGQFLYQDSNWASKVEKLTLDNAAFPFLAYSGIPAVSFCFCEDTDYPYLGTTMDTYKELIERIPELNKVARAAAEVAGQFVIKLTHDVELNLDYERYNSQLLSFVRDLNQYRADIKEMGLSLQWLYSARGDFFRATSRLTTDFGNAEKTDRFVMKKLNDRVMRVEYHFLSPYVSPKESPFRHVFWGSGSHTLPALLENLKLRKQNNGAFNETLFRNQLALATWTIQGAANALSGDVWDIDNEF

[5] = biological target: T2, CD71 apical domain; assay: solution ELISA, signal ratio to HSA
[6] = biological target: T3, recombinant biotinylated human CD71 …; assay: solution ELISA, signal ratio to HSA

T1 sequence (P02786 other isoform, or with tags, fused parts or gaps): as above

hCD71:HSA [1] | RLU [2] [RLU] | Apical domain, RLU [3] [RLU] | hCD71, RLU [4] [RLU] | apical domain:HSA [5] | hCD71:HSA [6] | Binder
96 | 1.51e+06 | – | – | – | – | SEQ ID NO 1 (designed binder, not shown: small tags and cut ends, FN3 domain, hit of the apical domain panning) MLPAPKNLVVSRVTEDSARLSWTAPDAAFDSFPITYIEAVVLGEAIVLTVPGSERSYDLTGLKPGTEYPVGISGVKGGHNSMPLSAIFTT
103 | 2.95e+06 | – | – | – | – | SEQ ID NO 37 (designed binder, not shown: small tags and cut ends, FN3 domain, hit of the apical domain panning) MLPAPKNLVVSRVTEDSARLSWTTPDAAFDSFPIYYWEVTITGEAIYLSVPGSERSYDLTGLKPGTEYPVDIPGVKGGAASPPLSAIFTT
– | – | 7.58e+06 | 1.77e+06 | 342 | 79.9 | SEQ ID NO 192 (designed binder, FN3 domain) MLPAPKNLVVSRVTEDSARLSWTAPDAAFDSFDIGYTEYGGYGEAIYLSVPGSERSYDLTGLKPGTEYWVLIQGVKGGGSSVPLSAIFTT
– | – | 353000 | 377000 | 12.5 | 13.4 | SEQ ID NO 172 (designed binder, FN3 domain) MLPAPKNLVVSRVTEDSARLSWTAPDAAFDSFFIGYLEPQPPGEAIVLTVPGSERSYDLTGLKPGTEYNVTIQGVKGGFPSMPLASFTT
– | – | 5.47e+06 | 1.51e+06 | 212 | 58.6 | SEQ ID NO 202 (designed binder, FN3 domain) MLPAPKNLVVSRVTEDSARLSWTAPDAAFDSFDIGYTEYGGYGEAILHVPGSERSYDLTGLKPGTEYWVLIQGVKGGGSSVPLSAIFTT
12 | 2.1e+06 | – | – | – | – | SEQ ID NO 4 (designed binder, not shown: small tags and cut ends, FN3 domain, hit of the apical domain panning) MLPAPKNLVVSEVTEDSARLSWQGVARAFDSFLITYRDQIFAGEVIVLTVPGSERSYDLTGLKPGTEYPVWIQGVKGGSPSAPLSAESTT
35 | 512000 | – | – | – | – | SEQ ID NO 15 (designed binder, not shown: small tags and cut ends, FN3 domain, hit of the apical domain panning) MLPAPKNLVVSRVTEDSARLSWQGVARAFDSFLITYREQIFAGEVIVLTVPGSERSYDLTGLKPGTECPVWIQGVKGGSPSAPLSAEFTT
12 | 1.02e+06 | – | – | – | – | SEQ ID NO 94 (designed binder, not shown: small tags and cut ends, FN3 domain, hit of the apical domain panning) MLPAPKNLVVSEVTEDSARLSWQGVARAFDSFLITYREQIFAGEVIVLTVPGSERSYDLTGLKPGTEYPVWIQGVKGGSPSAPLSAIFTT
11 | 444000 | – | – | – | – | SEQ ID NO 102 (designed binder, not shown: small tags and cut ends, FN3 domain, hit of the apical domain panning) MLPAPKNLVVSRVTEDSARLSWQGVARAFDSFLITYREQIFAGEVIVLTVPGSERSYDLTGLKPGTEYPVWIQGVKGGSPSAPLSAEFTT
10 | 991000 | – | – | – | – | SEQ ID NO 70 (designed binder, not shown: small tags and cut ends, FN3 domain, hit of the apical domain panning) MLPAPKNLVVSRVTEDSARLSWQGVARAFDSFLITYREQIFAGEVIVLTVPGSERSYDLTGLKPGTEYPVWIQGVKGGDLSNPLSAIFTT
28 | 383000 | – | – | – | – | SEQ ID NO 28 (designed binder, not shown: small tags and cut ends, FN3 domain, hit of the apical domain panning) MLPAPKNLVVSEVTEDSARLSWQGVVRAFDSFLITYREQIFAGEVIVLTVPGSERSYDLTGLKPGTEYPVWIQGVKGGSPSAPLSAEFTT
73 | 1.47e+06 | – | – | – | – | SEQ ID NO 73 (designed binder, not shown: small tags and cut ends, FN3 domain, hit of the apical domain panning) MLPAPKNLVVSEVTEDSARLSWQGVARAFDSFLITYREQIFAGEVIVLTVPGSERSYDLTGLKPGTEYPVWIQGVKGGSPSAPLSAESTT
40 | 1.27e+06 | – | – | – | – | SEQ ID NO 53 (designed binder, not shown: small tags and cut ends, FN3 domain, hit of the apical domain panning) MLPAPENLVVSEVTEDSARLSWQGVARAFDSFLITYREQIFAGEVIVLTVPGSERSYDLTGLKPGTEYPVWIQGVKGGSPSAPLSAESTT
– | – | 77900 | 796000 | 1.1 | 10.9 | SEQ ID NO 187 (designed binder, FN3 domain) MLPAPKNLVVSRVTEDSARLSWTAPDAAFDSFFIGYLEPQPPGEAISLLVPDSERSYDLTGLKPGTEYNVTIQGVKGGFPSMPLKFTT
– | – | 28300 | 5.33e+06 | 0.7 | 138 | SEQ ID NO 109 (designed binder, FN3 domain) MLPAPKNLVVSRVTEDSARLSWTAPDAAFDSFHISYEEDYTFGEAIYLRVPGSERSYDLTGLKPGTEYRVVIGGVKGGWFSEPLLAAFTT
– | – | 106000 | 1.61e+06 | 0.9 | 13.2 | SEQ ID NO 130 (designed binder, FN3 domain) MLPAPKNLVVSRVTEDSARLSWTAPDAAFDSFVIEYFEWTLNGEAIVLTVPGSERSYDLTGLKPGTEYSVQIYGVKGGCLSRPLSAIFTT

The remaining lines, values behind:

Binder | hCD71:HSA [1] | RLU [2] [RLU] | Apical domain, RLU [3] [RLU] | hCD71, RLU [4] [RLU] | apical domain:HSA [5] | hCD71:HSA [6]
SEQ ID NO 162 (designed binder, FN3 domain) MLPAPKNLVVSRVTEDSARLSWTAPDAAFDSFYIAYAEPRPDGEAIKLEVPGSERSYDLTGLKPGTEYSVLIHGVKGGLLSSPLAIFTT | – | – | 93100 | 638000 | 2.5 | 17
SEQ ID NO 115 (designed binder, FN3 domain) MLPAPKNLVVSRVTEDSARLSWTAPDAAFDSFYIAYAEPRPDGEAIELHVPGSERSYDLTGLKPGTEYSVLIHGVKGGLLSSPLFTT | – | – | 150000 | 3.47e+06 | 0.9 | 20.1
SEQ ID NO 38 (designed binder, not shown: small tags and cut ends, FN3 domain, hit of the apical domain panning) MLPAPKNLVVSRVTEDSARLSWTAPDAAFDSFPILYLEHTVRSEAIVLTVPGSERSYDLTDLKPGTEYCVPIDGVKGGLRSRPLSAIFTT | 63 | 518000 | – | – | – | –
SEQ ID NO 5 (designed binder, not shown: small tags and cut ends, FN3 domain, hit of the apical domain panning) MLPAPKNLVVSEVTEDSARLSWQGVARAFDSFLITYREQIFAGEVIVLTVPGSERSYDLTGLKPGTEYWVYIWGVKGGKPSFPLRAGFTT | 39 | 1.73e+06 | – | – | – | –
SEQ ID NO 7 (designed binder, not shown: small tags and cut ends, FN3 domain, hit of the apical domain panning) MLPAPKNLVVSDVTEDSARLSWQGVARAFDSFLITYREQIFAGEVIVLTVPGSERSYDLTGLKPGTEYPVWIQGVKGGSPSAPLSAEFTT | 29 | 761000 | – | – | – | –
SEQ ID NO 36 (designed binder, not shown: small tags and cut ends, FN3 domain, hit of the apical domain panning) MLPAPKNLVVSEVTEDSARLSWQGVARAFDSFLITYREQIFAGEVIVPTVPGSERSYDLTGLKPGTEYPVPIAGVKGGGPSAPLSAIFTT | 60 | 288000 | – | – | – | –
SEQ ID NO 41 (designed binder, not shown: small tags and cut ends, FN3 domain, hit of the apical domain panning) MLPAPKNLVVSRVTEDSARLSWQGVARAFDSFLITYREQIFAGEVIVLTVPGSERSYDLTGLKPGTEYPVWIQGVKGGHLSDPLSAIVTT | 12 | 1.37e+06 | – | – | – | –
SEQ ID NO 32 (designed binder, not shown: small tags and cut ends, FN3 domain, hit of the apical domain panning) MLPAPKNLVVSRVTEDSARLSWQGVARAFDSFLITYREQIFAGEVIVLTVPGSERSYDLTGLKPGTEYGVTIAGVKGGWRSKPLNAESTT | 75 | 342000 | – | – | – | –
SEQ ID NO 81 (designed binder, not shown: small tags and cut ends, FN3 domain, hit of the apical domain panning) MLPAPKNLVVSRVTEDSARLSWQGVARAFDSFLITYVELRHLGEAIVLTVPGSERSYDLTGLKPGTEYPVWIQGVKGGSPSAPLSAEFTT | 88 | 864000 | – | – | – | –
SEQ ID NO 84 (designed binder, not shown: small tags and cut ends, FN3 domain, hit of the apical domain panning) MLPAPKNLVVSRVTEDSARLSWQGVARAFDSFSILYLELTPKGEAIVLTVPGSERSYDLTGLKPGTEYPVWIQGVKGGSPSAPLSAEFTT | 28 | 3.53e+06 | – | – | – | –
SEQ ID NO 184 (designed binder, FN3 domain) MLPAPKNLVVSRVTEDSARLSWTAPDAAFDSFFIGYLEPQPPGEAIDLAVPGSERSYDLTGLKPGTEYSVLIHGVKGGLLSSPLSFTT | – | – | 120000 | 4.04e+06 | 0.8 | 27.9
SEQ ID NO 111 (designed binder, FN3 domain) MLPAPKNLVVSRVTEDSARLSWTAPDAAFDSFFIGYLEPQPPGEAIDLGVPGSERSYDLTGLKPGTEYNVTIQGVKGGFPSMPLDPLEAYFTT | – | – | 113000 | 2.41e+06 | 0.8 | 17.9
